Test results from PMC5884298.

Target: thrombin (UniProt P00734;P00734 328-363;364-622)
Assay: SERS mapping on gold nanopillars; thrombin 0.0873-87.3 nM; complex bands 822, 1140, 1558 cm-1; no Kd given; Thiolated aptamer on gold-coated Si nanopillars, MCH passivation (stated for quadruplex control); PBS pH 7.4 listed; thrombin incubation buffer and temperature

B1: TBA15 (thiolated thrombin-binding aptamer) (structured_DNA)
DNA: GGTTGGTGTGGTTGG
modifications: 5'-HS-(CH2)6 thiol linker (printed HS-(CH2)5-CH2-D/)
Does B1 bind?
Result: binds
